Reference: the supplement of paper PMC7877785
± gives the uncertainty stated by the source.

Assay: self-splicing fitness, log relative to wild type (ln ratio); higher = more splicing; Tetrahymena group I intron in knt gene, E. coli kanamycin selection, DiMSum; sequences stand for … in CUCUCU…GGAGGGAAAAGUUAUCAGGCAUGCACCUGGUAGCUAGUCUUUAAACCAAUAGAUUGCAUCGGUUUAAAAGGCAAGACCGUCAAAUUGCGGGAAAGGGGUCAACAGCCGUUCAGUACCAAGUCUCAGGGGAAACUUUGAGAUGGCCUUGCAAAGGGUAUGGUAAUAAGCUGACGGACAUGGUCCUAACCACGCAGCCAAGUCCUAAGUCAACAGAUCUUCUGUUGAUAUGGAUGCAGUUCACAGACUAAAUGUCGGUCGGGGAAGAUGUAUUCUUCUCAUAAGAUAUAGUCGGACCUCUCCUUAAUGGGAGCUAGCGGAUGAAGUGAUGCAACACUGGAGCCGCUGGGAACUAAUUUGUAUGCGAAAGUAUAUUGAUUAGUUUUGGAGUACUCGUGGUCG
Outline: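 Pooled colonies went to amplicon sequencing on an Illumina HiSeq 2500 after six replicate transformations. The plates were LB agar with 100 μg/mL carbenicillin, 50 μM IPTG and 0.2% rhamnose, with or without 25 μg/mL kanamycin, incubated overnight at 37°C or 30°C. The E. coli BL21(DE3) library had all eight P1ex-region intron nucleotides randomised, the intron placed in the knt kanamycin-resistance gene on pET-22b(+). DiMSum fitness is the error-weighted combination of replicate fold changes, kanamycin against none, normalised to wild type.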

Row | Sequence | self-splicing fitness (ln) (30 °C) | self-splicing fitness (ln) (37 °C)
1 | GCCAAGCAAUAUUACGUGAA | -0.726 ± 0.068 | 0.0387 ± 0.09
2 | CCAUAGCAAUAUUACGAUCU | -3.15 ± 0.34 | -2.96 ± 0.44
3 | CCAGAGCAAUAUUACGAAUC | -3.76 ± 0.26 | -2.74 ± 0.27
4 | GCAUAGCAAUAUUACGCCGA | – | -2.37 ± 0.25
5 | CUGGAGCAAUAUUACGCUUU | -3.02 ± 0.32 | -3.22 ± 0.47
6 | AUUCAGCAAUAUUACGAGUU | -2.76 ± 0.16 | -1.39 ± 0.13
7 | UUCUAGCAAUAUUACGACGU | -1.89 ± 0.12 | -1.12 ± 0.1
8 | AGCGAGCAAUAUUACGGGAU | -3.92 ± 0.28 | -2.76 ± 0.27
9 | GCAUAGCAAUAUUACGCGUG | -3.46 ± 0.2 | -2.64 ± 0.28
10 | UCACAGCAAUAUUACGCUAC | -3.12 ± 0.19 | -2.77 ± 0.21
11 | CGGUAGCAAUAUUACGGACA | -1.91 ± 0.32 | -1.34 ± 0.29
12 | GGAUAGCAAUAUUACGCUCU | -1.63 ± 0.26 | –
13 | UAAAAGCAAUAUUACGGGUC | -3.09 ± 0.25 | -2.82 ± 0.27
14 | GACCAGCAAUAUUACGGUUU | -2.44 ± 0.083 | -0.744 ± 0.079
15 | UUCUAGCAAUAUUACGCGUU | -2.47 ± 0.15 | -1.9 ± 0.13
16 | CCCAAGCAAUAUUACGGUGU | -2.71 ± 0.089 | -1 ± 0.084
17 | AGCCAGCAAUAUUACGCCGA | – | -0.449 ± 0.29
18 | GAUAAGCAAUAUUACGCAAU | -2.21 ± 0.13 | -0.936 ± 0.16
19 | UGGGAGCAAUAUUACGACGG | -2.22 ± 0.26 | -1.69 ± 0.39
20 | GCAAAGCAAUAUUACGACCG | -0.859 ± 0.14 | -1.26 ± 0.25
21 | AAUUAGCAAUAUUACGUUAU | -2.88 ± 0.18 | -1.11 ± 0.12
22 | AGAAAGCAAUAUUACGGCCC | 0.946 ± 0.29 | -0.169 ± 0.27
23 | UUCGAGCAAUAUUACGGUAC | -3.39 ± 0.27 | -2.62 ± 0.44
24 | GUAAAGCAAUAUUACGCUGA | -1.4 ± 0.072 | -0.903 ± 0.099

Row | Sequence | self-splicing fitness (ln) (30 °C) | self-splicing fitness (ln) (37 °C)
25 | ACUCAGCAAUAUUACGACCG | -0.553 ± 0.16 | -1 ± 0.15
26 | GAGCAGCAAUAUUACGGAUC | -0.51 ± 0.12 | -0.724 ± 0.12
27 | GCUUAGCAAUAUUACGGAUU | -1.15 ± 0.1 | -0.911 ± 0.11
28 | CGAGAGCAAUAUUACGAGGC | -1.83 ± 0.24 | -0.565 ± 0.48
29 | GCUGAGCAAUAUUACGGUAA | -3.07 ± 0.29 | -2.44 ± 0.23
30 | UGGGAGCAAUAUUACGCGUU | -2.33 ± 0.28 | -2.02 ± 0.44
31 | CUGGAGCAAUAUUACGAGUU | -2.26 ± 0.13 | -3.51 ± 0.33
32 | CCGCAGCAAUAUUACGACGG | -2.83 ± 0.11 | -2.64 ± 0.19
33 | CGGUAGCAAUAUUACGUCUA | -0.754 ± 0.073 | -0.163 ± 0.081
34 | UAUCAGCAAUAUUACGAUCA | -0.115 ± 0.11 | 0.19 ± 0.14
35 | AGCAAGCAAUAUUACGCUGG | -4.34 ± 0.41 | -2.95 ± 0.26
36 | AGGAAGCAAUAUUACGCAAG | -3.11 ± 0.22 | -1.45 ± 0.13
37 | UACUAGCAAUAUUACGUUUC | -4.15 ± 0.33 | -2.53 ± 0.23
38 | UCGCAGCAAUAUUACGGUGU | – | -2.63 ± 0.24
39 | GCGUAGCAAUAUUACGCCGU | -2.86 ± 0.26 | -3.17 ± 0.26
40 | AACAAGCAAUAUUACGGCUC | -0.27 ± 0.071 | 0.236 ± 0.1
41 | GCCAAGCAAUAUUACGAUUC | -0.96 ± 0.062 | -0.482 ± 0.082
42 | GUAAAGCAAUAUUACGUAAC | -1.7 ± 0.17 | -1.38 ± 0.28
43 | AACGAGCAAUAUUACGCCGG | -2.42 ± 0.4 | -0.855 ± 0.34
44 | UUCCAGCAAUAUUACGUCAG | -1.75 ± 0.077 | -1.19 ± 0.097
45 | GGCAAGCAAUAUUACGAAUA | -1.45 ± 0.079 | -0.797 ± 0.083
46 | CUGCAGCAAUAUUACGGAUA | -3.58 ± 0.29 | -2.69 ± 0.25
47 | GUCAAGCAAUAUUACGACGC | -1.35 ± 0.11 | 0.832 ± 0.18
48 | ACGAAGCAAUAUUACGGAAC | -3.19 ± 0.26 | -1.95 ± 0.25
